# Reference: US20020128178A1, “Use of growth hormone or a growth hormone secretagogue for promoting bone formation” (priority 1996, published 2002)
# Tests used:
# [1] = tested on: fracture-healing in rabbits; conditions: no distraction; cited from earlier work
# [2] = tested on: distracted tibia (callus distraction) of Yucatan mini-pigs; experiment: Mechanical torsion testing of distracted tibia after callus distraction in GH-treated mini-pigs; assay type: in vivo, Yucatan mini-pig; conditions: at sacrifice
# Experimental: After sacrifice, the right and left limb were dissected. The soft tissue around the joints was removed, and the ends of the tibia were casted in Beracryl. The constructs were placed in a materials testing machine (Zwick, Ulm, Germany), and torsional moments were applied. Resulting displacements and torsional moments were recorded. The test was conducted with a speed of 30° per minute until failure. The system automatically terminated the test at a torque of 20%.
# The final bone torsional strength of a mini-pig group treated with growth hormone was investigated relative to a control group.
# 30 mature female Yucatan mini-pigs were equally distributed into two treatment groups. Mini-pigs in the study group received a daily injection of recombinant porcine growth hormone (r-pGH: 100 μg/kg), the mini-pigs in the control group received sodium chloride as placebo. The left tibiae and fibulae were osteotomized and stabilized with an external fixator. Full weight bearing was permitted. The legs were distracted twice daily at 2 mm/day for 10 days and then allowed to consolidate for 10 days. After sacrifice, torsional moments were applied to the distracted and the contralateral tibia in a material testing machine and the maximum torsional moment was determined. Four animals were removed from the study due to bone infection or surgery failure and data of 2 animals were lost due to test machine failure. A t-test was used to determine differences in maximum torsional moments between the treatment groups.
# [3] = tested on: healing fracture in dogs; conditions: compared to non-treated dogs; cited from earlier work
molecule,measurement,setting,value
growth hormone,effect on fracture-healing,[1],no effect
"GH: recombinant porcine growth hormone (r-pGH), homologous GH injected daily at 100 μg/kg in mini-pigs (protein, UniProt P01248 27-216, looked up) Somatotropin: FPAMPLSSLFANAVLRAQHLHQLAADTYKEFERAYIPEGQRYSIQNAQAAFCFSETIPAPTGKDEAQQRSDVELLRFSLLLIQSWLGPVQFLSRVFTNSLVFGTSDRVYEKLKDLEEGIQALMRELEDGSPRAGQILKQTYDKFDTNLRSDDALLKNYGLLSCFKKDLHKAETYLRVMKCRRFVESSCAF",maximum torsional moment of distracted tibia,"[2]; r-pGH 100 μg/kg daily injection, distraction 2 mm/day for 10 days, consolidation 10 days, p=0.001 vs placebo",19.5±7.8 Nm
same,maximum torsional moment in comparison to the intact contralateral tibia,"[2]; r-pGH 100 μg/kg daily, p<0.001 vs control",64±22.4%
same,higher maximum torsional moment than placebo group,"[2]; r-pGH 100 μg/kg daily, versus placebo group",131%
"cST: canine somatotropin given to dogs in the study of Buonomo et al. (protein, UniProt P33711 27-216, looked up) Somatotropin: FPAMPLSSLFANAVLRAQHLHQLAADTYKEFERAYIPEGQRYSIQNAQAAFCFSETIPAPTGKDEAQQRSDVELLRFSLLLIQSWLGPVQFLSRVFTNSLVFGTSDRVYEKLKDLEEGIQALMRELEDGSPRAGQILKQTYDKFDTNLRSDDALLKNYGLLSCFKKDLHKAETYLRVMKCRRFVESSCAF",increase of stiffness of the healing fracture,[3],5 fold
same,increase of strength of the healing fracture,[3],3 fold
